Patent publication US11419921B2, “Methods of treating neurological disorders” (EnClear Therapies, Inc., priority 2018, dated 2022)

Tested on: (GR)10
Experiment: Cleavage of (GR)10 by enzymes in solution (PBS with CaCl2 and MgCl2), LC/MS of GR repeats
Assay type: biochemical
Details: (GR)10 50 μM
Procedure: • (GR)10 dipeptide (also (GR)8, (GR)6, (GR)4, (GR)2) were synthetized by solid-phase synthesis by CanPeptide; All peptides are uncapped and supplied lyophilized with TFA as counter ions. Purity was always above 95%. • Buffer: PBS buffer containing CaCl2 and MgCl2. • Stock solution of enzyme (e.g., 10 mg/mL) (prepared per manufacturer instructions) in PBS. Activators added as necessary. • Working solution of protein of the desired concentration (e.g., 100 μg/mL) prepared immediately before use by diluting the stock solution (e.g., 5 μL of 10 mg/mL stock solution) in PBS buffer (e.g., in 495 μL of PBS). Exemplary Procedure Using 50 μM Concentrations of (GR)10
25 μL of a 100 μM solution of (GR)10 was added to each well of a 96-well plate. 25 μL of a solution of enzyme (two times the desired final enzyme concentration) was added, and the plates were incubated at room temperature. At the specified time points (5 minutes, 10 minutes, 30 minutes, 60 minutes, and 180 minutes) 2.5 μL of a 10% TFA solution were added to stop the reaction. For the time 0 min well, the TFA was added to the well before addition of the enzyme. After last time point, all samples were further diluted with 150 μL of dilution solution. The quenched reaction mixtures were analyzed by LC/MS to determine the concentration of GR repeats of different lengths.
The chromatography and mass spectrometry conditions utilized are shown in Table 2 and Table 3, respectively.

B1: Proteinase K: protease that cleaves peptide bonds adjacent to the carboxylic group of aliphatic and aromatic amino acids (protein)
chain: AAQTNAPWGLARISSTSPGTSTYYYDESAGQGSCVYVIDTGIEASHPEFEGRAQMVKTYYYSSRDGNGHGTHCAGTVGSRTYGVAKKTQLFGVKVLDDNGSGQYSTIIAGMDFVASDKNNRNCPKGVVASLSLGGGYSSSVNSAAARLQSSGVMVAVAAGNNNADARNYSPASEPSVCTVGASDRYDRRSSFSNYGSVLDIFGPGTSILSTWIGGSTRSISGTSMATPHVAGLAAYLMTLGKTTAASACRYIADTANKGDLSNIPFGTVNLLAYNNYQA
**Q.** Which results are given for B1?
**A.** (GR)1 concentration (enzyme 0.25 μg/mL, 0 min): BLQ; (GR)2 concentration (enzyme 0.25 μg/mL, 0 min): BLQ; (GR)4 concentration (enzyme 0.25 μg/mL, 0 min): BLQ; (GR)6 concentration (enzyme 0.25 μg/mL, 0 min): BLQ; (GR)8 concentration (enzyme 0.25 μg/mL, 0 min): 0.3 µM; (GR)10 concentration (enzyme 0.25 μg/mL, 0 min): 44.9 µM; (GR)1 concentration (enzyme 0.25 μg/mL, 2.5 min): BLQ; (GR)2 concentration (enzyme 0.25 μg/mL, 2.5 min): BLQ; (GR)4 concentration (enzyme 0.25 μg/mL, 2.5 min): BLQ; (GR)6 concentration (enzyme 0.25 μg/mL, 2.5 min): BLQ; (GR)8 concentration (enzyme 0.25 μg/mL, 2.5 min): BLQ; (GR)10 concentration (enzyme 0.25 μg/mL, 2.5 min): 55.8 µM; (GR)1 concentration (enzyme 0.25 μg/mL, 5 min): 0.1 µM; (GR)2 concentration (enzyme 0.25 μg/mL, 5 min): BLQ; (GR)4 concentration (enzyme 0.25 μg/mL, 5 min): BLQ; (GR)6 concentration (enzyme 0.25 μg/mL, 5 min): BLQ; (GR)8 concentration (enzyme 0.25 μg/mL, 5 min): BLQ; (GR)10 concentration (enzyme 0.25 μg/mL, 5 min): 54.4 µM; (GR)1 concentration (enzyme 0.25 μg/mL, 10 min): 0.2 µM; (GR)2 concentration (enzyme 0.25 μg/mL, 10 min): BLQ; (GR)4 concentration (enzyme 0.25 μg/mL, 10 min): BLQ; (GR)6 concentration (enzyme 0.25 μg/mL, 10 min): BLQ; (GR)8 concentration (enzyme 0.25 μg/mL, 10 min): BLQ; (GR)10 concentration (enzyme 0.25 μg/mL, 10 min): 50.3 µM; (GR)1 concentration (enzyme 0.25 μg/mL, 30 min): 0.6 µM; (GR)2 concentration (enzyme 0.25 μg/mL, 30 min): 0.2 µM; (GR)4 concentration (enzyme 0.25 μg/mL, 30 min): 0.1 µM; (GR)6 concentration (enzyme 0.25 μg/mL, 30 min): BLQ; (GR)8 concentration (enzyme 0.25 μg/mL, 30 min): 0.3 µM; (GR)10 concentration (enzyme 0.25 μg/mL, 30 min): 55.1 µM; (GR)1 concentration (enzyme 0.25 μg/mL, 60 min): 1.0 µM; (GR)2 concentration (enzyme 0.25 μg/mL, 60 min): 0.3 µM; (GR)4 concentration (enzyme 0.25 μg/mL, 60 min): BLQ; (GR)6 concentration (enzyme 0.25 μg/mL, 60 min): BLQ; (GR)8 concentration (enzyme 0.25 μg/mL, 60 min): 0.3 µM; (GR)10 concentration (enzyme 0.25 μg/mL, 60 min): 56.3 µM; (GR)1 concentration (enzyme 10 μg/mL, 0 min): BLQ; (GR)2 concentration (enzyme 10 μg/mL, 0 min): BLQ; (GR)4 concentration (enzyme 10 μg/mL, 0 min): BLQ; (GR)6 concentration (enzyme 10 μg/mL, 0 min): BLQ; (GR)8 concentration (enzyme 10 μg/mL, 0 min): BLQ; (GR)10 concentration (enzyme 10 μg/mL, 0 min): 49.4 µM; (GR)1 concentration (enzyme 10 μg/mL, 2.5 min): 3.0 µM; (GR)2 concentration (enzyme 10 μg/mL, 2.5 min): 0.5 µM; (GR)4 concentration (enzyme 10 μg/mL, 2.5 min): 0.6 µM; (GR)6 concentration (enzyme 10 μg/mL, 2.5 min): 0.5 µM; (GR)8 concentration (enzyme 10 μg/mL, 2.5 min): 0.6 µM; (GR)10 concentration (enzyme 10 μg/mL, 2.5 min): 55.4 µM; (GR)1 concentration (enzyme 10 μg/mL, 5 min): 5.3 µM; (GR)2 concentration (enzyme 10 μg/mL, 5 min): 0.8 µM; (GR)4 concentration (enzyme 10 μg/mL, 5 min): 1.3 µM; (GR)6 concentration (enzyme 10 μg/mL, 5 min): 0.8 µM; (GR)8 concentration (enzyme 10 μg/mL, 5 min): 1.3 µM; (GR)10 concentration (enzyme 10 μg/mL, 5 min): 48.8 µM; (GR)1 concentration (enzyme 10 μg/mL, 10 min): 11.9 µM; (GR)2 concentration (enzyme 10 μg/mL, 10 min): 1.4 µM; (GR)4 concentration (enzyme 10 μg/mL, 10 min): 2.9 µM; (GR)6 concentration (enzyme 10 μg/mL, 10 min): 2.2 µM; (GR)8 concentration (enzyme 10 μg/mL, 10 min): 2.6 µM; (GR)10 concentration (enzyme 10 μg/mL, 10 min): 44.1 µM; (GR)1 concentration (enzyme 10 μg/mL, 30 min): 44.8 µM; (GR)2 concentration (enzyme 10 μg/mL, 30 min): 5.7 µM; (GR)4 concentration (enzyme 10 μg/mL, 30 min): 9.5 µM; (GR)6 concentration (enzyme 10 μg/mL, 30 min): 5.2 µM; (GR)8 concentration (enzyme 10 μg/mL, 30 min): 3.5 µM; (GR)10 concentration (enzyme 10 μg/mL, 30 min): 16.6 µM; (GR)1 concentration (enzyme 10 μg/mL, 60 min): 64.1 µM; (GR)2 concentration (enzyme 10 μg/mL, 60 min): 10.1 µM; (GR)4 concentration (enzyme 10 μg/mL, 60 min): 13.6 µM; (GR)6 concentration (enzyme 10 μg/mL, 60 min): 6.6 µM; (GR)8 concentration (enzyme 10 μg/mL, 60 min): 5.7 µM; (GR)10 concentration (enzyme 10 μg/mL, 60 min): 10.6 µM
